According to patent US20060286112A1:

Tests used:
[1] = substrate: I domain-GST, recombinant GST fusion protein containing amino acids 127-340 of the human VLA-1 α1 subunit (human) (UniProt P56199); experiment: SPR, mAb captured on anti-human IgG, I domain-GST in solution, no Mg2+
[2] = substrate: I domain-GST, recombinant GST fusion protein containing amino acids 127-340 of the human VLA-1 α1 subunit (human) (UniProt P56199); experiment: SPR, mAb captured on anti-human IgG, I domain-GST in solution, no Mg2+, titration screen (*)
[3] = substrate: I domain-GST, recombinant GST fusion protein containing amino acids 127-340 of the human VLA-1 α1 subunit (human) (UniProt P56199); experiment: SPR, mAb captured on anti-human IgG, I domain-GST in solution, 1 mM Mg2+, titration screen (*)
[4] = biological target: biotinylated I domain-GST (human) (UniProt P56199); experiment: competition: I domain-btn binding to immobilized collagen IV, streptavidin-HRP
[5] = substrate: I domain-GST, recombinant GST fusion protein containing amino acids 127-340 of the human VLA-1 α1 subunit (human) (UniProt P56199); experiment: competition: I domain-GST binding to immobilized collagen IV, anti-GST-HRP
[6] = substrate: I domain-GST, recombinant GST fusion protein containing amino acids 127-340 of the human VLA-1 α1 subunit (human) (UniProt P56199); experiment: SPR, mAb captured on anti-human IgG, I domain-GST in solution, 1 mM Mg2+

Chain of I domain-GST, recombinant GST fusion protein containing amino acids 127-340 of the human VLA-1 α1 subunit (human) (P56199 151-364 limits assumed, form in doubt): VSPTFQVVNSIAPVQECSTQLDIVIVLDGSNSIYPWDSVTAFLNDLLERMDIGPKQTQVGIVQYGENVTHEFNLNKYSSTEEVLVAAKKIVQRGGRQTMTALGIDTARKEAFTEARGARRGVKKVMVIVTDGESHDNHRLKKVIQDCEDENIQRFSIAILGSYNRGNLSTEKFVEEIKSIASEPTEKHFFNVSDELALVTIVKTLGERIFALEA

Binder	Kd [1] [nM]	koff [1] [s⁻¹]	kon [1] [M⁻¹ s⁻¹]	koff [2] [s⁻¹]	kon [2] [M⁻¹ s⁻¹]	Kd [3] [nM]	koff [3] [s⁻¹]	kon [3] [M⁻¹ s⁻¹]	IC50 [4] [nM]	IC50 [5] [nM]	Kd [6] [nM]	koff [6] [s⁻¹]	kon [6] [M⁻¹ s⁻¹]	Kd [2] [nM]
2.1 (antibody, V domains shown) VH: QVQLQESGPGLVKPSQTLSLTCTVSGGSISSGGYYWSWIRQHPGKGLEWIGYIYNSGSTYYNPSLKSRGTISADTSKNQFSLKLSSVTAADTAVYYCARGSSSYYWYFDLWGRGTLVTVSS VL: DIQMTQSPSSMSASVGDRVTITCRASQRISSNLNWYQQKPGKAPKFLIYGASSLQSGVPSRFSGSGSGTDFTLTISSLRPEDFATYYCQQSYSTPYTFGPGTKVDIK	4.62	0.00211	456000											
2.7 (antibody, V domains shown) VH: EVQLVESGGGLVKPGGSLRLSCAASGFTFSNAWMSWVRQAPGKGLEWVGRIKRKTDGETTDYAAPVKGRFTISRDDSRNTLYLQMNSLKTEDTAVYYCTIYTYYYGMDVWGQGTTVTVSS VL: DIQMTQSPSSLSASVGDRVTITCRASQSINNYLNWYQQKPGKAPKLLIYAASSLESGVPSRFSGSGSGTDFTLTISSLQPEDFATYYCQQSYSTPPTFGQGTKVEIK				8.22e-05	134000	0.117	3.77e-05	321000	2.4	6.4				
2.11 (antibody, V domains shown) VH: QVQLQESGPGLVKPSQTLSLTCTVSGGSINSGGYYWSWIRQHPGKGLEWIGYIFYSGSTYYNPSLKSRVNISVDTSKNQFSLKMSSVTAADTAVYYCARDQDGFDYWGQGTLVTVSS VL: DIVMTQTPLSLPVTPGEPASISCRSSQSLLDSDDGNTYLDWYLQKPGQSPQLLIYTLSYRASGVPDRFSGSGSGTDFTLKISRVEAEDVGVYYCMQRIEFPWTFGQGTKVEIK	0.889	0.000208	234000			0.025	8e-06	318000						
2.19 (antibody, V domains shown) VH: QVQLQESGPGLVKPSETLSLTCTVSGDSISSYYWSWIRQPPGKGLEWIGYVYYSGSTNYNPSLKSRVTMSVDTSKNQFSLKLSSVTAADTAVYYCARDLELYAFDIWGQGTMVTVSS VL: EIVLTQFPGTLSLSPGERVTLSCRASQSVSSTYVVWYQQKPGQAPRLLIYGASSRATGIPDRFSGSGSGTDFTLTISRLEPEDFAVYYCQQHGSSPWTFGQGTKVEIK	0.478	5.93e-05	124000						3	7.4	0.243	0.000131	538000	
2.25 (antibody, V domains shown) VH: QVQLQQSGPGLVKPSQTLSLTCAISGDSVSSNSAAWNWIRQSPSRGLEWLGRTYYMSKWYNDYAVSVKSRITINPDTSKNQFSLQLNSVTPEDTAVYYCARARYCGGDCYDFDYWGQGTLVTVSS VL: DIQMTHSPSSLSASVGDRVTITCRASQSISISLNWYQQKPGNAPKLLIYAASSLQSGIPSRFSGSGSGTDFTLTISSLQPEDFATYYCQQSFSTPWTFGQGTKVEIK	1.46	0.000111	75800								1.57	1.3e-05	8300	
3.2 (antibody, V domains shown) VH: QVQLVESGGGVVQPGRSLRLSCAASGFTFSSYGIHWVRQAPGKGLEWVAVIWYDGSDIYYADSVKGRFTISRDNSKNTLYLQMNSLRAEDTALYYCARESSGWTFDYWGQGTLVTVSS VL: QSALTQPASVSGSPGQSITISCTGTSSDVGGYNYVSWYQQHPGKAPKLMIYEVSNRPSGISNRFSGSKSGNTASLTISGLQAEDEADYYCSSYTSSSTIIFGGGTKLTVL									1.6	3.2	0.04	1.43e-05	354000	
6.3 (antibody, V domains shown) VH: QVLLQESGPGLVKPSQTLSLTCTVSGGSISSGGYYWSWIRQHPGKGLEWIGYINYSGSAYYNPSLKSRVTISVDTSKNQFSLKLSSVTAADTAVYYCARDHWLLRGFDYWGQGTLVTVSS VL: DIVMTQTPLSLSVTPGQPASISCKSSQSLLHSDGKTYLYWYLQKPGQPPQLLIYEVSNRFSGVPDRFSGSGSGTDFTLKISRVEAEDVGVYYCMQSIQLPRTFGQGTKVEIK	1.69	0.000243	144000											
6.17 (antibody, V domains shown) VH: EVQLVQSGAEVKKPGESLRISCKGSGYSVSSYWIGWVRQMPGKGLEWMGIIYPGDSDTRYSPSFQGQVTISADKSISTAFLQWISLKASDTAMYYCARLQGDCSGGSCYGHFDYWGQGTLVTVS VL: EIVLTQSPGTLSLSPGERATLSCRASQTISSGYLAWYQQKPAQAPRLLIYVASRRATGIPDRFSGSGSGTDFTLTISRLEPEDFAVYYCQQYGSSSWTFGQGTTVEIK	1.63	0.000154	94600			0.255	0.000136	533000	7.6	12				
6.18 (antibody, V domains shown) VH: EVQLVQSGAEVKKPGESLRISCKGSGYSVTSYWIGWVRQMPGKGLEWMGIIYPGDSDTRYSPSFQGQVTISADKSISTAYLQWSSLKASDTAMYYCARLQGDCSGGTCYGHFDYWGQGTLVTVS VL: EIVLTQSPGTLSLSPGERATLSCRASQSVSSSYLAWYQQKPAQAPRLLIYVASRRATGIPDRFSGSGSGTDFTLTISRLEPEDFAVYYCQQYGTSSWTFGQGTTVEIK				7.08e-05	123000	0.138	7.2e-05	523000	3.3	7.6				0.574
6.48 (antibody, V domains shown) VH: EVQLVQSGAEVKKPGESLRISCKGSGYSVSSYWIGWVRQMPGKGLEWMGIIYPGDSDTRYSPSFQGQVTISADKSISTAFLQWISLKASDTAMYYCARLQGDCSGGSCYGHFDCWGQGTLVTVS VL: DVVLTQSPLSLPVTLGQPASISCRSSQSLVNSDGDTYLSWFQQWPGQSPRRLFYEVSNWDSGVPDRFSGSGSGTDFTLKISRVEAEDVGVYYCMQGTHWLTFGGGTKVEIK						0.216	0.000121	561000	6.1	9.8				
10.1 (antibody, V domains shown) VH: QVQLQQSGPGLVKPSETLSLTCTVSGASISSYYWSWIRQPAGKGLEWIGRIYASGSTNYNPSLKSRVTMSVDTSKSQFSLNLSSVTAADTAVYYCAREGWERLQDYYYYGLDVWGQGTTVTVSS VL: EIVLTQSPGTLSLSPGERATLSCRASQSVSRNYLAWNQQKPGQAPRLLIYGASSRATGIPDRFSGSGSGTDFTLTISRLEPEDFAVYYCQQYGSSPLTFGGGTKVEIK	1.04	0.000173	166000			0.068	3.1e-05	453000	3.1	5.5				
